Assay results reported in patent US20080104734A1 (published 2008).

Target: SSPG1d peptide ([…])
Test: ELISA

B1: polyhistidine tagged scFv-SSPG1d-peptide (scFv)
scFv: MDIVLTQSPAIMSASPGEKVTMTCSASSSVSYMHWYQQKSSTSPKLWIYDTSKLASGVPGRFSGSGSGNSYSLTISSMEAEDVATYYCFQGSGYPLTFGAGTKLEIKRGAGGSGGGGSGGGGSGGGGSQVQLQQSGAELVRPGSSVKISCKASGYAFSNYWMNWVKQRPGQGLEWIGQIYPGYGDAKYNGKFKGKATLTADISSSTAYMQLSSLTSEDSAVYFCARSSYEANWGQGTLVTVSALEHHHHHH
Kd: 26.7 nM
